Experimental data from paper PMC10127577 (2023).

Molecular target: T1, CDTb protoxin (proCDTb), CDTb residues 43 to 876 (Clostridioides difficile, UniProt O32739 43-876)
T1 chain: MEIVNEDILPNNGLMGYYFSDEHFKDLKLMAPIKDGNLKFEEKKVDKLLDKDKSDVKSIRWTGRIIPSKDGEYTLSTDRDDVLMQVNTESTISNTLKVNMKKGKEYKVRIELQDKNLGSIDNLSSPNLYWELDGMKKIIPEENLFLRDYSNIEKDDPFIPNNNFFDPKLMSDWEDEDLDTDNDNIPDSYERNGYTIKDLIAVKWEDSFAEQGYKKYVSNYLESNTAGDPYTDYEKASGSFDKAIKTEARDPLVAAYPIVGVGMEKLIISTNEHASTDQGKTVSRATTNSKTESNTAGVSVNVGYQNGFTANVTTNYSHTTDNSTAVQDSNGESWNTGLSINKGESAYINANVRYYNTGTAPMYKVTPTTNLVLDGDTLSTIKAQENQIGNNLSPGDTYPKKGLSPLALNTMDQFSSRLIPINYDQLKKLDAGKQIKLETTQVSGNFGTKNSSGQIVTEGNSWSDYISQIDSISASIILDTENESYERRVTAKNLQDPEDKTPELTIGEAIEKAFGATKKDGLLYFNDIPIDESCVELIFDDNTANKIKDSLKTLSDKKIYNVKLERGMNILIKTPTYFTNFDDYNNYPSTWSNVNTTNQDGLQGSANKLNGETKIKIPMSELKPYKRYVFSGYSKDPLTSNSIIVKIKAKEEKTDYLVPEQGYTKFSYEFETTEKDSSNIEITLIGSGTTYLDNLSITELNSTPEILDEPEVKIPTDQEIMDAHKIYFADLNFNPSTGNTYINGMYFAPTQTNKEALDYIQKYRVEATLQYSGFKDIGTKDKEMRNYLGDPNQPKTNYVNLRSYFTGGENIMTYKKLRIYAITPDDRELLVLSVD
Experiment: SPR

B1: BINTOXB/22 Fab (Fab, V domains shown)
VH: QIQLVQSGPELKKPGETVKISCKASGYTFTNYGMNWVKQAPGKDLKWMGWMSTYTGEPTYADDFKGRFAFSLETSASTAYLQINNLKNEDMATYFCARRGNYLSFDYWGQGTTLTVSS
VL: DIVMTQSHKFMSTSVGDRVSITCKASQDVSTAVGWYQQKPGQSPKLLIYSASYRYTGVPDRFTGSGSGTDFTFTISSVQAEDLAVYYCQQHYSPPFTFGSGTELEIK
koff: 0.00299 s⁻¹

B2: BINTOXB/9 Fab (Fab, V domains shown)
VH: QVQLQQSGAELARPGASVKMSCKASGYTFTSYTMHWVKQRPGQGLEWIGYINPSNDYTSYNQKFKDKATLTADKSSSTAYMQLSSLTSEDSAVYYCARCWGYDPYYFDYWGQGTTLTVSS
VL: DIVMSQSPSLLAVSAGEKVTMSCKSSQSLLNSRTRKNYLAWYQQKPGQSPKVLIYWASTRESGVPDRFTGSGSGTDFTLTISSVQAEDLAVYYCKQSYNLLTFGAGTKLELK
koff: 0.000227 s⁻¹
